Measured values as given in patent US7101542.

Tests used:
[1] = molecular target: DT390IL-4 fusion protein (murine) (UniProt P00588); test: cell-based or functional assay
[2] = molecular target: IL-4 receptor (IL-4R) on C1498 tumor cells (UniProt P16382); test: cell-based or functional assay
Chain of UniProt P16382 (P16382 26-810 limits assumed): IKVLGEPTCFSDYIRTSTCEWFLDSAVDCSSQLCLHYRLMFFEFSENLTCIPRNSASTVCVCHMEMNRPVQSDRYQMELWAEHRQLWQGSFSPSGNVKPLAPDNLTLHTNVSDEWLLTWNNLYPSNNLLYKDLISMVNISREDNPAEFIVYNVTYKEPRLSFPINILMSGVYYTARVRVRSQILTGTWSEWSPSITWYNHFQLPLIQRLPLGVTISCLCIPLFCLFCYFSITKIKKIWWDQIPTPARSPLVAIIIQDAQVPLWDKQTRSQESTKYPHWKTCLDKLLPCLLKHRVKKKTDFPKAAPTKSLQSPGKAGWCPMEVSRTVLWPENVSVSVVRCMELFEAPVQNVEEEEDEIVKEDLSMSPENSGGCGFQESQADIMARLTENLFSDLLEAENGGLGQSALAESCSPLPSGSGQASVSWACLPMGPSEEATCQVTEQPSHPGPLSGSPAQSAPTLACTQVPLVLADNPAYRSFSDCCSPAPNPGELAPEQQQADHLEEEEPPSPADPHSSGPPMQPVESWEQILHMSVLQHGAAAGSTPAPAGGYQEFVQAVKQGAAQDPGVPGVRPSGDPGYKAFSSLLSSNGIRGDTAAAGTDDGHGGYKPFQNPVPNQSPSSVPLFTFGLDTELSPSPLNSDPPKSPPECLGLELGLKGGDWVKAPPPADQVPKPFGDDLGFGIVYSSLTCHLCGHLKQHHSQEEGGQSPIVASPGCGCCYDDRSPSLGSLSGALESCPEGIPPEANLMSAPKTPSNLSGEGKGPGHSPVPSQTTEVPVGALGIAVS

Chain of UniProt P00588 (P00588 33-390, tags or fused parts left off): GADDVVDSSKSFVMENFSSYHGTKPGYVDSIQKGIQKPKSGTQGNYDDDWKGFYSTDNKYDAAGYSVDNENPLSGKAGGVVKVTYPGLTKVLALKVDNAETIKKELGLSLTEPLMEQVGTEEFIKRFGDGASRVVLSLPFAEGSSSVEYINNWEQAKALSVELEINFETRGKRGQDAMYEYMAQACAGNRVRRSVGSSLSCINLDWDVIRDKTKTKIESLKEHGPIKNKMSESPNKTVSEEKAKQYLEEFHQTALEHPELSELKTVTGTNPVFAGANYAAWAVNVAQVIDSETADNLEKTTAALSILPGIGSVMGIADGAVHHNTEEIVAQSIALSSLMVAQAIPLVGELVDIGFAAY

| Substance | blocking of C1498 killing by DT390IL-4 [1] [µM] | viability of C1498 cells [2] [nM] | viability of IL-4R+ C1498 leukemia cells (trypan blue, live cell count) [2] [nM] |
| --- | --- | --- | --- |
| rat IgG1 anti-mouse IL-4 monoclonal antibody (Clone 11B11) | 20 |  |  |
| DT390IL-4 fusion protein (from UniProt P00588 33-390; P07750 21-140) |  | 10 | 1 |
